Experimental findings from patent publication US20070087966A1 are described below.

The assay concerns the target rat PRL receptor (PRL-R) on trigeminal ganglia neurons (rat) (UniProt P05710). The assay is described as follows: cell-based or functional assay.

Sequence of rat PRL receptor (PRL-R) on trigeminal ganglia neurons (rat) (P05710 20-610): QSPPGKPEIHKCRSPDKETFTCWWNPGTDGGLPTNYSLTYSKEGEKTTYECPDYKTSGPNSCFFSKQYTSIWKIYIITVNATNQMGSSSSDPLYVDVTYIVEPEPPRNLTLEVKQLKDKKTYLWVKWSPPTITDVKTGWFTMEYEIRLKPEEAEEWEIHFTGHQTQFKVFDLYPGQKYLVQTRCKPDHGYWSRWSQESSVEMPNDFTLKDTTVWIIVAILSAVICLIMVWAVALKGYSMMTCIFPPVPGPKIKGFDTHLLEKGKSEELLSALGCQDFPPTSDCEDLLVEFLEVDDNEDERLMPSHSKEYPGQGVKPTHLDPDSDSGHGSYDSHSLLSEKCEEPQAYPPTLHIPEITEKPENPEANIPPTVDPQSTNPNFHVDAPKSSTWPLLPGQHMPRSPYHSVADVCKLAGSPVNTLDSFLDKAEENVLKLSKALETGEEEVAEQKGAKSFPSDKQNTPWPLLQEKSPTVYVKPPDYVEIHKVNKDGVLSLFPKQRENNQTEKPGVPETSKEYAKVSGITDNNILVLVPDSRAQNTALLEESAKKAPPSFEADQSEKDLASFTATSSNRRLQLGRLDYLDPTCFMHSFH

In turn, G129R-hPRL (ligand) displayed a reduction of the PRL effect on Icap (G129R-PRL 16 nM with rPRL 4 nM) of 40%.
For “Ovine PRL [oPRL-21, BIO] (from UniProt P01240 31-229) (ligand)”, the EC50 of sensitization of capsaicin-induced currents (Icap) in TG neurons from naive female rats was found to be 0.27 nM; the TRPV1 phosphorylation (32P incorporation) in TG neurons from intact female rats, PRL 40 nM for 10 min turned out to be 150%; the capsaicin-evoked Ca2+ influx in TG neurons from intact female rats (PRL 40 nM, 10 min) was 71%.
